According to patent US11266762B2, “Methods and kits for producing a fibrin matrix” (Kuros Biosurgery AG, priority 2018, dated 2022):
Where “and” joins values, the source holds several entries; their conditions need not be identical. Identical values can stand only once.

Legend:
fibrinogen solution = assay: Stability of TGplPTH1-34 over time in fibrinogen solution stored at room temperature (HPLC-UV); assay type: physicochemical; details: for TGplPTH1-34 content Mean ± SD / % loss of TGplPTH1-34: in fibrinogen solution; for TGplPTH1-34 content Mean ± SD: room temperature (20-25° C.); for % loss of TGplPTH1-34: room temperature
Experimental: In order to evaluate the stability of TGplPTH1-34 in the fibrinogen component over time, TGplPTH1-34 was mixed with a fibrinogen solution and stored at room temperature.
TGplPTH1-34 was added to fibrinogen solution at a concentration of 266 μg/ml and incubated at room temperature for up to 34 days. Samples were taken at indicated time points and TGplPTH1-34 concentration was determined by HPLC. Briefly, TGplPTH1-34 was quantified with a HPLC-UV method using a Zorbax Agilent RP18 column (4.6×150 mmm, 5 μm, 300 A) for the separation of related substances. As eluent A: 0.1% TFA, 1% ACN in water and as eluent B: 0.1% TFA in ACN was used. The gradient was 0 min. 26% B; 15 min 38% B; 18 min. 90% B; 22 min 26% B; 24 min 26% B. The injection volume was 20 μl and the flow rate was 1 ml/min. The column temperature was 35° C. A reference standard was used for the calibration curve.
The results from the TGplPTH1-34 stability analysis in fibrinogen stored at room temperature (20-25° C.) for up to 34 days are shown in Table 2.

fibrin matrix = target: T1, fibrin matrix (Homo sapiens, UniProt P02671+P02675+P02679); assay: Retention assay: covalent binding of TGplPTH1-34 to fibrin matrix (unbound peptide extracted, PTH1-34 ELISA); details: for % unbound TGplPTH1-34 in fibrin matrix: 1 mg/ml final; for Average % unbound ± SD: both experiments
T1 construct: thrombin on one hand cleaves fibrinogen leading to fibrin polymers; purchased Baxter Healthcare AG (ARTISS®)
T1 sequence (P02671 36-866 limits assumed): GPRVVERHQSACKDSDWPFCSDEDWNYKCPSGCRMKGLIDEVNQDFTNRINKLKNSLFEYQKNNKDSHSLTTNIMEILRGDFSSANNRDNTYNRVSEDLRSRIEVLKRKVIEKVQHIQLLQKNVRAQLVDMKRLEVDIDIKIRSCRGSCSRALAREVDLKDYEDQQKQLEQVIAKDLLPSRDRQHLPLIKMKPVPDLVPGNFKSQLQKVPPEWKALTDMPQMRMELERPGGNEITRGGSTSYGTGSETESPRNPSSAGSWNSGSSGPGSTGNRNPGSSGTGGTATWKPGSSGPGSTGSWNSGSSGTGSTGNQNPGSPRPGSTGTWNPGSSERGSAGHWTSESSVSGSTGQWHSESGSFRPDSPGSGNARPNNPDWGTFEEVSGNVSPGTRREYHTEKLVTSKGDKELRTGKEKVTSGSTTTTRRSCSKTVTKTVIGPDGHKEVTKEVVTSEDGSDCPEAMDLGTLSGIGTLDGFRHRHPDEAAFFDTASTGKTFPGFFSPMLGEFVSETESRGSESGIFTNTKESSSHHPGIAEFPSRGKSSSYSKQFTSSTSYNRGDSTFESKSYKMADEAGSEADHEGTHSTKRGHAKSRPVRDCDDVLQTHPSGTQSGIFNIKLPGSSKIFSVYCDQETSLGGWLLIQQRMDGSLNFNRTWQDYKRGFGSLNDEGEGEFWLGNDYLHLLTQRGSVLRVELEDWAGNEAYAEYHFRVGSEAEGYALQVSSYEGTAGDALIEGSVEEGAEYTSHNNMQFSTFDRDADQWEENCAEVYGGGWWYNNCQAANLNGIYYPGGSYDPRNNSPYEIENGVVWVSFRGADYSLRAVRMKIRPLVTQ
T1 sequence (P02675 45-491 limits assumed): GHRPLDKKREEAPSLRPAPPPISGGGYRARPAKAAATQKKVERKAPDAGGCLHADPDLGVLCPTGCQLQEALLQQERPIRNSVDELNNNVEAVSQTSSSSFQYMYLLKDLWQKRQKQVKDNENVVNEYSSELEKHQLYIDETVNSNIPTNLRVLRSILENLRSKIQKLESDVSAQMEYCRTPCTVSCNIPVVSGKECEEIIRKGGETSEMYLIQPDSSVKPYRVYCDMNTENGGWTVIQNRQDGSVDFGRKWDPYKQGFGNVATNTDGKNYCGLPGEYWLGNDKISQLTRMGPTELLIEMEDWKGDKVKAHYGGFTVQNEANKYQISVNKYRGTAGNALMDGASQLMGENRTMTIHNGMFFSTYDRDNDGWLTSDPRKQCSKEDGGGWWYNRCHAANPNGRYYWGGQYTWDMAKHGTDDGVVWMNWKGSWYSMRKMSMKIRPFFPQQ
T1 sequence (P02679 27-433 limits assumed): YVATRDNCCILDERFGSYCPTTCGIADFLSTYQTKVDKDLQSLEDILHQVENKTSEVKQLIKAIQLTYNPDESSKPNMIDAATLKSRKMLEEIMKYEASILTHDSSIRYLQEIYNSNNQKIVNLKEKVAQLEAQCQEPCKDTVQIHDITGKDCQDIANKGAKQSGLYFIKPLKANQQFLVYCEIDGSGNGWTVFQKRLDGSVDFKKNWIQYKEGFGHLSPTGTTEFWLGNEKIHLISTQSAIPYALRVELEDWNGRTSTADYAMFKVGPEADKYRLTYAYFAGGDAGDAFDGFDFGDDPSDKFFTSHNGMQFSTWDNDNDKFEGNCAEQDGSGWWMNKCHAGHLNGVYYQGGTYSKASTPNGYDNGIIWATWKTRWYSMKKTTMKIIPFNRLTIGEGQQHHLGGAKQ
Experimental: The percentage of covalent TGplPTH1-34 binding to fibrin matrices was determined in fibrin matrices prepared with two different methods using an indirect assay. With this assay, non-covalently bound TGplPTH1-34 that can be washed out of the matrix is determined. In the first method (pre-mixing), the two components of the fibrin sealant, ARTISS® were thawed and TGplPTH1-34 was premixed with the fibrinogen component at a concentration of 2 mg/ml. Immediately after mixing, the two components of the fibrin sealant were frozen again and stored at −20° C. The samples were then thawed, and the two components of the sealant were mixed. The final concentration of TGplPTH1-34 in mixed fibrin sealant was 1 mg/ml.
In the second method, the two fibrin sealant components were directly mixed with TGplPTH1-34 solubilized in water to achieve a final concentration of 1 mg/ml (see FIG. 1A).
To evaluate the amount of TGplPTH1-34 covalently bound to the fibrin matrix with the two methods, samples prepared by either of the two methods were subjected to a retention assay. Aliquots of 50 μl were added to 1.5 ml Eppendorf tubes. The fibrin matrices were then incubated at 37° C. for 1 hour. Unbound TGplPTH1-34 was extracted from the fibrin matrix by addition of 1.5 ml extraction buffer (50 mM Tris pH 9.4, 1M NaCl, 0.1% Tween 20) supplemented with protease Inhibitors (Roche Cat #11836153001 cOmplete™, Mini Protease Inhibitor Co) and incubated under constant shaking. After 3 hours the supernatant was collected and 1.5 ml of fresh extraction buffer was added to the fibrin matrix. This extraction step was repeated after 6, 24, 30 and 48 h. Collected supernatants were stored at −20° C. until further processing.
To determine the amount of unbound TGplPTH1-34, the 5 collected supernatants were thawed and pooled. TGplPTH1-34 in the pool was determined by ELISA with a commercial PTH1-34 ELISA kit (Immutopics, Cat *60-3900) following the manufacturer's recommendation. Two independent experiments (three samples per fibrin matrix and experiment) were performed with both preparation methods and the amount of TGplPTH1-34 not bound to the fibrin matrix was determined.

% unbound TGplPTH1-34 in fibrin matrix (fibrin matrix; First method (pre-mixing with fibrinogen component, refrozen), Experiment 1, samples 1-3): 16.8% and 14.4% and 13.9% | % unbound TGplPTH1-34 in fibrin matrix (fibrin matrix; First method (pre-mixing with fibrinogen component, refrozen), Experiment 2, samples 1-3): 14.7% and 10.2% and 15.1% | Average % unbound ± SD (fibrin matrix; First method (pre-mixing)): 14.2 ± 2.2% | Average % unbound ± SD (fibrin matrix; Second method (direct mixing)): 14.0 ± 1.4% | % unbound TGplPTH1-34 in fibrin matrix (fibrin matrix; Second method (sealant components directly mixed with TGplPTH1-34 in water), Experiment 1, samples 1-3): 13.9% and 11.3% and 15.4% | % unbound TGplPTH1-34 in fibrin matrix (fibrin matrix; Second method (sealant components directly mixed with TGplPTH1-34 in water), Experiment 2, samples 1-3): 14.4% and 14.7%
Substance: TGplPTH1-34: PTH fusion peptide: TG substrate domain, plasmin cleavage site, PTH1-34; NQEQVSPLYKNRSVSEIQLMHNLGKHLNSMERVEWLRKKLQDVHNF (Synthetic fusion protein)
% of the product degraded (fibrinogen solution; 3-5 days in fibrinogen solution at room temperature (time frame for manufacturing)): 4.3-7.8% | TGplPTH1-34 content Mean ± SD (fibrinogen solution; day 0, added at 266 μg/ml): 232 ± 0.99 µg/mL | % loss of TGplPTH1-34 (fibrinogen solution; day 3): −4.3% | TGplPTH1-34 content Mean ± SD (fibrinogen solution; day 3): 222 ± 0.80 µg/mL | % loss of TGplPTH1-34 (fibrinogen solution; day 5): −7.8% | TGplPTH1-34 content Mean ± SD (fibrinogen solution; day 5): 214 ± 1.48 µg/mL | % loss of TGplPTH1-34 (fibrinogen solution; day 7): −10.3% | TGplPTH1-34 content Mean ± SD (fibrinogen solution; day 7): 208 ± 1.76 µg/mL | % loss of TGplPTH1-34 (fibrinogen solution; day 14): −17.2% | TGplPTH1-34 content Mean ± SD (fibrinogen solution; day 14): 192 ± 2.28 µg/mL | % loss of TGplPTH1-34 (fibrinogen solution; day 21): −24.1% | TGplPTH1-34 content Mean ± SD (fibrinogen solution; day 21): 176 ± 1.57 µg/mL | % loss of TGplPTH1-34 (fibrinogen solution; day 29): −25.9% | TGplPTH1-34 content Mean ± SD (fibrinogen solution; day 29): 172 ± 2.51 µg/mL | % loss of TGplPTH1-34 (fibrinogen solution; day 34): −28.0% | TGplPTH1-34 content Mean ± SD (fibrinogen solution; day 34): 167 ± 1.2 µg/mL | degradation of the fusion peptide in fibrinogen solution (fibrinogen solution; exposure for more than 5 days at room temperature): substantial degradation
